Measurements from publication PMC7192611, “A transient α-helix in the N-terminal RNA recognition motif of polypyrimidine tract binding protein senses RNA secondary structure”.

Key:
PTB RRM1 WT [1] = biological target: T1, PTB RRM1 WT (human, UniProt P26599-1 41-163); experiment: NMR; 45 C; modest shift changes; ITC (30 C) and NMR (40 C): 20 mM NaCl, 10 mM NaH2PO4 pH 6.5. EMSA: 20 mM NaH2PO4 pH 7.2, 100 mM NaCl, 5 mM MgCl2, 5% glycerol, 1 mM DTT, 50 ug/ml yeast tRNA, 40 ug/ml BSA, room temperature; settings: protein: recombinant; single strand
T1 sequence (P26599 41-163): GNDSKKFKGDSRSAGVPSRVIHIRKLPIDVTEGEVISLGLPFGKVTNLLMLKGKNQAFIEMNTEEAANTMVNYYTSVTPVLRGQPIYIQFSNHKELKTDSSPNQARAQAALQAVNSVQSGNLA

PTB RRM1 WT [2] = biological target: T1, PTB RRM1 WT; experiment: NMR; docked alpha3 78%; ITC (30 C) and NMR (40 C): 20 mM NaCl, 10 mM NaH2PO4 pH 6.5. EMSA: 20 mM NaH2PO4 pH 7.2, 100 mM NaCl, 5 mM MgCl2, 5% glycerol, 1 mM DTT, 50 ug/ml yeast tRNA, 40 ug/ml BSA, room temperature; settings: protein: recombinant; hairpin, loop UCUU
PTB RRM1 WT [3] = biological target: T1, PTB RRM1 WT; experiment: NMR; docked alpha3 49%; ITC (30 C) and NMR (40 C): 20 mM NaCl, 10 mM NaH2PO4 pH 6.5. EMSA: 20 mM NaH2PO4 pH 7.2, 100 mM NaCl, 5 mM MgCl2, 5% glycerol, 1 mM DTT, 50 ug/ml yeast tRNA, 40 ug/ml BSA, room temperature; settings: protein: recombinant; hairpin, UUCG tetraloop
PTB RRM1 WT [4] = biological target: T1, PTB RRM1 WT; experiment: NMR; alpha3 formed as with SL UCUUU; ITC (30 C) and NMR (40 C): 20 mM NaCl, 10 mM NaH2PO4 pH 6.5. EMSA: 20 mM NaH2PO4 pH 7.2, 100 mM NaCl, 5 mM MgCl2, 5% glycerol, 1 mM DTT, 50 ug/ml yeast tRNA, 40 ug/ml BSA, room temperature; settings: protein: recombinant; hairpin, 9-nt loop with UUCUU at its 5' end
PTB RRM1 WT [5] = biological target: T1, PTB RRM1 WT; experiment: NMR; docked alpha3 55%; ITC (30 C) and NMR (40 C): 20 mM NaCl, 10 mM NaH2PO4 pH 6.5. EMSA: 20 mM NaH2PO4 pH 7.2, 100 mM NaCl, 5 mM MgCl2, 5% glycerol, 1 mM DTT, 50 ug/ml yeast tRNA, 40 ug/ml BSA, room temperature; settings: protein: recombinant; hairpin, loop UCGUU
PTB RRM1 WT [6] = biological target: T1, PTB RRM1 WT; experiment: NMR; docked alpha3 79%; ITC (30 C) and NMR (40 C): 20 mM NaCl, 10 mM NaH2PO4 pH 6.5. EMSA: 20 mM NaH2PO4 pH 7.2, 100 mM NaCl, 5 mM MgCl2, 5% glycerol, 1 mM DTT, 50 ug/ml yeast tRNA, 40 ug/ml BSA, room temperature; settings: protein: recombinant; hairpin, loop GCUUU
PTB RRM1 L151G = PTB RRM1 L151G (human, UniProt P26599-1 41-163, L151G); experiment: NMR; alpha3 does not fold; ITC (30 C) and NMR (40 C): 20 mM NaCl, 10 mM NaH2PO4 pH 6.5. EMSA: 20 mM NaH2PO4 pH 7.2, 100 mM NaCl, 5 mM MgCl2, 5% glycerol, 1 mM DTT, 50 ug/ml yeast tRNA, 40 ug/ml BSA, room temperature; settings: protein: recombinant; tags: intein tag removed; label: 13C/15N in some NMR samples; hairpin, 5-nt loop UCUUU (positions 10-14)
PTB RRM1 L151G, sequence (P26599 41-163 L151G): as the sequence (P26599 41-163) above, with L111G counted along it

PTB RRM1 WT [7] = biological target: T1, PTB RRM1 WT; experiment: ITC; Kd1, two independent site model, 30 C; ITC (30 C) and NMR (40 C): 20 mM NaCl, 10 mM NaH2PO4 pH 6.5. EMSA: 20 mM NaH2PO4 pH 7.2, 100 mM NaCl, 5 mM MgCl2, 5% glycerol, 1 mM DTT, 50 ug/ml yeast tRNA, 40 ug/ml BSA, room temperature; settings: protein: recombinant; label: 13C/15N in some NMR samples; hairpin, 5-nt loop UCUUU (positions 10-14)
PTB RRM1 P142G = PTB RRM1 P142G (human, UniProt P26599-1 41-163, P142G); experiment: NMR; alpha3 helicity increases on binding; ITC (30 C) and NMR (40 C): 20 mM NaCl, 10 mM NaH2PO4 pH 6.5. EMSA: 20 mM NaH2PO4 pH 7.2, 100 mM NaCl, 5 mM MgCl2, 5% glycerol, 1 mM DTT, 50 ug/ml yeast tRNA, 40 ug/ml BSA, room temperature; settings: protein: recombinant; tags: intein tag removed; label: 13C/15N in some NMR samples; hairpin, 5-nt loop UCUUU (positions 10-14)
PTB RRM1 P142G, sequence (P26599 41-163 P142G): as the sequence (P26599 41-163) above, with P102G counted along it

PTB RRM1 N143G/R146G = PTB RRM1 N143G/R146G (human, UniProt P26599-1 41-163, N143G;R146G); experiment: ITC; Kd1; up to 3-fold; ITC (30 C) and NMR (40 C): 20 mM NaCl, 10 mM NaH2PO4 pH 6.5. EMSA: 20 mM NaH2PO4 pH 7.2, 100 mM NaCl, 5 mM MgCl2, 5% glycerol, 1 mM DTT, 50 ug/ml yeast tRNA, 40 ug/ml BSA, room temperature; settings: protein: recombinant; tags: intein tag removed; label: 13C/15N in some NMR samples; hairpin, 5-nt loop UCUUU (positions 10-14)
PTB RRM1 N143G/R146G, sequence (P26599 41-163 N143G/R146G): as the sequence (P26599 41-163) above, with N103G, R106G counted along it

PTB RRM1 K94A = PTB RRM1 K94A (human, UniProt P26599-1 41-163, K94A); experiment: ITC; Kd1; almost 7-fold; ITC (30 C) and NMR (40 C): 20 mM NaCl, 10 mM NaH2PO4 pH 6.5. EMSA: 20 mM NaH2PO4 pH 7.2, 100 mM NaCl, 5 mM MgCl2, 5% glycerol, 1 mM DTT, 50 ug/ml yeast tRNA, 40 ug/ml BSA, room temperature; settings: protein: recombinant; tags: intein tag removed; label: 13C/15N in some NMR samples; hairpin, 5-nt loop UCUUU (positions 10-14)
PTB RRM1 K94A, sequence (P26599 41-163 K94A): as the sequence (P26599 41-163) above, with K54A counted along it

PTB RRM1 WT [8] = biological target: T1, PTB RRM1 WT; experiment: NMR; docked alpha3 66%; ITC (30 C) and NMR (40 C): 20 mM NaCl, 10 mM NaH2PO4 pH 6.5. EMSA: 20 mM NaH2PO4 pH 7.2, 100 mM NaCl, 5 mM MgCl2, 5% glycerol, 1 mM DTT, 50 ug/ml yeast tRNA, 40 ug/ml BSA, room temperature; settings: protein: recombinant; hairpin, loop UCUGU

CUCUCU (ssRNA) [CUCUCU ssRNA]
binding result (PTB RRM1 WT [1]): binds

GGGACCUGGUCUUCCAGGUCCC (structured_RNA) [SL UCUU_]
binding result (PTB RRM1 WT [2]): binds

GGGACCUGGUUCGCCAGGUCCC (structured_RNA) [SL UUCG]
binding result (PTB RRM1 WT [3]): binds

GAUGGAUUCUUAUGCUCCAUC (structured_RNA) [hsa-mir-136 stem-loop]
binding result (PTB RRM1 WT [4]): binds

GGGACCUGGUCGUUCCAGGUCCC (structured_RNA) [SL UCGUU]
binding result (PTB RRM1 WT [5]): binds

GGGACCUGGGCUUUCCAGGUCCC (structured_RNA) [SL GCUUU]
binding result (PTB RRM1 WT [6]): binds

GGGACCUGGUCUUUCCAGGUCCC (structured_RNA) [SL UCUUU]
binding result (PTB RRM1 L151G): binds
Kd (PTB RRM1 WT [7]): 100 ± 20 nM
binding result (PTB RRM1 P142G): binds
binding signal (PTB RRM1 N143G/R146G): ~3 fold loss of affinity vs WT
binding signal (PTB RRM1 K94A): ~7 fold loss of affinity vs WT

GGGACCUGGUCUGUCCAGGUCCC (structured_RNA) [SL UCUGU]
binding result (PTB RRM1 WT [8]): binds
